Results reported in publication PMC9908306.

Target: human glyceraldehyde 3-phosphate dehydrogenase (GAPDH) (human) (UniProt P04406)
Test: cryo-EM structure; single particle analysis of GAPDH on EG-grid, 0.5 mg/ml; D2 symmetry applied

Chain of human glyceraldehyde 3-phosphate dehydrogenase (GAPDH), P04406 1-335 (enzyme; other documents disagree on this pair) (P04406 whole entry): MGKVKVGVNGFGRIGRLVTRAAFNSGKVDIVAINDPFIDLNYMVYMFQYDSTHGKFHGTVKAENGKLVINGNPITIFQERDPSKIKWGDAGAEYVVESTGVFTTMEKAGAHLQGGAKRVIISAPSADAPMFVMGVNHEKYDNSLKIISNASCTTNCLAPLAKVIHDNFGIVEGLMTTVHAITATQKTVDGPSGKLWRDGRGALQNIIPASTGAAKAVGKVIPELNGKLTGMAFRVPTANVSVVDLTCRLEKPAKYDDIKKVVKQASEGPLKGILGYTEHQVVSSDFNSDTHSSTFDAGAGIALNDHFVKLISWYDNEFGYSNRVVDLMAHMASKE

Substance: human glyceraldehyde 3-phosphate dehydrogenase (GAPDH), P04406 1-335 (enzyme; other documents disagree on this pair)
- stoichiometry N: 4
